Results published in paper PMC4705653.

How the values were obtained:
[1] = molecular target: GST-Mcm10 (budding yeast) (UniProt P32354); experiment: pull-down; 30 pmol GST-tagged protein on Glutathione Sepharose, varying concentrations of 32P-labelled PKA-tagged protein in solution; GST binding buffer (40 mM Tris–HCl pH 7.5, 100 mM NaCl, 0.1 mM EDTA, 10% glycerol, 0.1% Triton X-100, 1 mM DTT, 0.1 mg/ml BSA), 100 μl, 30°C, 10 min; SDS-PAGE and phosphorimaging; in some panels with 5 mM ATP or ATPγS, or with a third labelled protein (Mcm10, Sld3) added
Chain of GST-Mcm10 (budding yeast) (P32354 whole entry): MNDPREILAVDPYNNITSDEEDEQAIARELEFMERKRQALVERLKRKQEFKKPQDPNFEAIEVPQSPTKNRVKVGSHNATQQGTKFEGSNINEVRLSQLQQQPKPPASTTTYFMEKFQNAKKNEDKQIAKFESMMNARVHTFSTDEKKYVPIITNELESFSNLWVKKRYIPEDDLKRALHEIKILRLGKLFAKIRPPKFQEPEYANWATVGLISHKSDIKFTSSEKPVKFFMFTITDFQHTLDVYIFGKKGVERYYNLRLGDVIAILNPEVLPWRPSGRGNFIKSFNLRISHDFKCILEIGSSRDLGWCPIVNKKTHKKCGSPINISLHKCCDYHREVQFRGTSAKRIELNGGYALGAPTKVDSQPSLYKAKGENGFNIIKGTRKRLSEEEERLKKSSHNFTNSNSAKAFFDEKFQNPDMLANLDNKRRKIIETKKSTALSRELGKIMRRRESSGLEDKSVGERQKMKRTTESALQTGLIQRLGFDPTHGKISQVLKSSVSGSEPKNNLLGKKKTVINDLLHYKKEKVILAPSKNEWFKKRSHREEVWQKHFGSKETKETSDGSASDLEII

Sld3 = Sld3 (UniProt P53135); experiment: anti-Mcm2 co-IP, Sld3 blot; settings: reference: wild-type mcm2; sites S164,S170

signal relative to GST alone [1]	binding against the reference (Sld3)	Substance
> 10 times	–	PKA-Mcm2–7 complex (radiolabeled, wild type), P29469 1-868; P24279 1-971; P30665 1-933; P29496 1-775; P53091 1-1017; P38132 1-845
–	lost	Mcm2 (from UniProt P29469) mcm2-2A (S164A S170A)
